Patent US20210032365A1 (Chugai, published 2021)
Positions count from the first letter of the chain named.

T1: human C1s (human, UniProt P09871 16-688)
T1 construct: also called hC1s; serum-derived human C1s (CompTech)
T1 sequence: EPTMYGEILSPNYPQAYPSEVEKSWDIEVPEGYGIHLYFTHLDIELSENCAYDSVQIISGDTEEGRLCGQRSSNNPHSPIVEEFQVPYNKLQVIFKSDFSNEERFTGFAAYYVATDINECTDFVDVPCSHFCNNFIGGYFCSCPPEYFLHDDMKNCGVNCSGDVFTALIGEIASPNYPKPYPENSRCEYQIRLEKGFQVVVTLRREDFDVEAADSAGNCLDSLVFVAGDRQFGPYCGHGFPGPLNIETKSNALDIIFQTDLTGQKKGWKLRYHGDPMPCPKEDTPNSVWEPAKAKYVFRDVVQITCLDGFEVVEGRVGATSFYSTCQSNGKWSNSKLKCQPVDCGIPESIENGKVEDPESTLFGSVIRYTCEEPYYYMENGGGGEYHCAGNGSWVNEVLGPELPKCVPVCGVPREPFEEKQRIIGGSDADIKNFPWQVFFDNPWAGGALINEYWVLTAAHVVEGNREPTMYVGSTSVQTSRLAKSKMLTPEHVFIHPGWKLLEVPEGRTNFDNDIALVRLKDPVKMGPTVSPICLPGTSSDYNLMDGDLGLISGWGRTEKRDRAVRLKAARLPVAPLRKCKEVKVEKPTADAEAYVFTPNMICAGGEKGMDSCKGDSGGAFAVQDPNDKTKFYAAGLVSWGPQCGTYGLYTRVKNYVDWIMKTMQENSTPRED

B1: C1_IPN92H0033-SG4GK/IPN93L0072-SK1 (antibody, human IgG4 S228P, kappa, name in Kabat numbering, V domains shown)
VH: EVMLVESGGGLVKPGGSLRLSCAASGFTFSNYAMSWVRQAPGKGLEWVATISSGGSHTYYLDSVKGRFTISRDNSKDTLYLQMNSLRAEDTALYYCARLFTGHAMDYWGQGTLVTVSS
VL: QIVLTQSPATLSLSPGERATLSCTASSSVKSSYLHWYQQKPGKAPKLWIYSTSNLASGVPSRFSGSGSGTDYTLTISSLQPEDFATYYCHQYYRLHPITFGQGTKLEIKR
notes: also called IPN92H0033/IPN93L0072
B2: C1_IPN92H0033-SG4GK/IPN93L0090-SK1 (antibody, human IgG4 S228P, kappa, name in Kabat numbering, V domains shown)
VH: B1 VH
VL: B1 VL with K30S, Y33K
notes: also called IPN92H0033/IPN93L0090
B3: C1_IPN92H0061-SG4GK/IPN93L0024-SK1 (antibody, human IgG4 S228P, kappa, name in Kabat numbering, V domains shown)
VH: B1 VH with F29K
VL: B1 VL with K30S
notes: also called IPN92H0061/IPN93L0024
B4: C1_IPN92H0079-SG4GK/IPN93L0024-SK1 (antibody, human IgG4 S228P, kappa, name in Kabat numbering, V domains shown)
VH: B1 VH with Y32K
VL: B1 VL with K30S
notes: also called IPN92H0079/IPN93L0024
B5: C1_IPN92H0091-SG4GK/IPN93L0024-SK1 (antibody, human IgG4 S228P, kappa, name in Kabat numbering, V domains shown)
VH: B1 VH with M34K
VL: B1 VL with K30S
notes: also called IPN92H0091/IPN93L0024
B6: C1_IPN92H0117-SG4GK/IPN93L0024-SK1 (antibody, human IgG4 S228P, kappa, name in Kabat numbering, V domains shown)
VH: B1 VH with S53Q
VL: B1 VL with K30S
notes: also called IPN92H0117/IPN93L0024
B7: C1_IPN92H0144-SG4GK/IPN93L0024-SK1 (antibody, human IgG4 S228P, kappa, name in Kabat numbering, V domains shown)
VH: B1 VH with H57K
VL: B1 VL with K30S
notes: also called IPN92H0144/IPN93L0024
B8: C1_IPN92H0145-SG4GK/IPN93L0024-SK1 (antibody, human IgG4 S228P, kappa, name in Kabat numbering, V domains shown)
VH: B1 VH with H57R
VL: B1 VL with K30S
notes: also called IPN92H0145/IPN93L0024
B9: C1_IPN92H0147-SG4GK/IPN93L0024-SK1 (antibody, human IgG4 S228P, kappa, name in Kabat numbering, V domains shown)
VH: B1 VH with T58D
VL: B1 VL with K30S
notes: also called IPN92H0147/IPN93L0024
B10: C1_IPN92H0156-SG4GK/IPN93L0024-SK1 (antibody, human IgG4 S228P, kappa, name in Kabat numbering, V domains shown)
VH: B1 VH with Y59K
VL: B1 VL with K30S
notes: also called IPN92H0156/IPN93L0024
B11: C1_IPN92H0157-SG4GK/IPN93L0024-SK1 (antibody, human IgG4 S228P, kappa, name in Kabat numbering, V domains shown)
VH: B1 VH with Y59R
VL: B1 VL with K30S
notes: also called IPN92H0157/IPN93L0024
B12: C1_IPN92H0159-SG4GK/IPN93L0024-SK1 (antibody, human IgG4 S228P, kappa, name in Kabat numbering, V domains shown)
VH: B1 VH with Y60D
VL: B1 VL with K30S
notes: also called IPN92H0159/IPN93L0024
B13: C1_IPN92H0160-SG4GK/IPN93L0024-SK1 (antibody, human IgG4 S228P, kappa, name in Kabat numbering, V domains shown)
VH: B1 VH with Y60E
VL: B1 VL with K30S
notes: also called IPN92H0160/IPN93L0024
B14: C1_IPN92H0162-SG4GK/IPN93L0024-SK1 (antibody, human IgG4 S228P, kappa, name in Kabat numbering, V domains shown)
VH: B1 VH with Y60K
VL: B1 VL with K30S
notes: also called IPN92H0162/IPN93L0024
B15: C1_IPN92H0165-SG4GK/IPN93L0024-SK1 (antibody, human IgG4 S228P, kappa, name in Kabat numbering, V domains shown)
VH: B1 VH with L61D
VL: B1 VL with K30S
notes: also called IPN92H0165/IPN93L0024
B16: C1_IPN92H0166-SG4GK/IPN93L0024-SK1 (antibody, human IgG4 S228P, kappa, name in Kabat numbering, V domains shown)
VH: B1 VH with L61E
VL: B1 VL with K30S
notes: also called IPN92H0166/IPN93L0024
B17: C1_IPN92H0188-SG4GK/IPN93L0024-SK1 (antibody, human IgG4 S228P, kappa, name in Kabat numbering, V domains shown)
VH: B1 VH with K65D
VL: B1 VL with K30S
notes: also called IPN92H0188/IPN93L0024
B18: C1_IPN92H0193-SG4GK/IPN93L0024-SK1 (antibody, human IgG4 S228P, kappa, name in Kabat numbering, V domains shown)
VH: B1 VH with G66D
VL: B1 VL with K30S
notes: also called IPN92H0193/IPN93L0024
B19: C1_IPN92H0194-SG4GK/IPN93L0024-SK1 (antibody, human IgG4 S228P, kappa, name in Kabat numbering, V domains shown)
VH: B1 VH with G66E
VL: B1 VL with K30S
notes: also called IPN92H0194/IPN93L0024
B20: C1_IPN92H0231-SG4GK/IPN93L0024-SK1 (antibody, human IgG4 S228P, kappa, name in Kabat numbering, V domains shown)
VH: B1 VH with G102K
VL: B1 VL with K30S
notes: also called IPN92H0231/IPN93L0024
B21: C1_IPN92H0232-SG4GK/IPN93L0024-SK1 (antibody, human IgG4 S228P, kappa, name in Kabat numbering, V domains shown)
VH: B1 VH with G102R
VL: B1 VL with K30S
notes: also called IPN92H0232/IPN93L0024
B22: C1_IPN92H0253-SG4GK/IPN93L0024-SK1 (antibody, human IgG4 S228P, kappa, name in Kabat numbering, V domains shown)
VH: B1 VH with D106K
VL: B1 VL with K30S
notes: also called IPN92H0253/IPN93L0024
B23: C1_IPN92H0261-SG4GK/IPN93L0091-SK1 (antibody, human IgG4 S228P, kappa, name in Kabat numbering, V domains shown)
VH: B1 VH with Y60E, G102K
VL: B1 VL with K30S, Y33R
notes: also called IPN92H0261/IPN93L0091
B24: C1_IPN92H0279-SG4GK/IPN93L0091-SK1 (antibody, human IgG4 S228P, kappa, name in Kabat numbering, V domains shown)
VH: B1 VH with Y60E, G66E, G102K
VL: B1 VL with K30S, Y33R
notes: also called IPN92H0279/IPN93L0091
B25: C1_IPN92H0281-SG4GK/IPN93L0024-SK1 (antibody, human IgG4 S228P, kappa, name in Kabat numbering)
heavy: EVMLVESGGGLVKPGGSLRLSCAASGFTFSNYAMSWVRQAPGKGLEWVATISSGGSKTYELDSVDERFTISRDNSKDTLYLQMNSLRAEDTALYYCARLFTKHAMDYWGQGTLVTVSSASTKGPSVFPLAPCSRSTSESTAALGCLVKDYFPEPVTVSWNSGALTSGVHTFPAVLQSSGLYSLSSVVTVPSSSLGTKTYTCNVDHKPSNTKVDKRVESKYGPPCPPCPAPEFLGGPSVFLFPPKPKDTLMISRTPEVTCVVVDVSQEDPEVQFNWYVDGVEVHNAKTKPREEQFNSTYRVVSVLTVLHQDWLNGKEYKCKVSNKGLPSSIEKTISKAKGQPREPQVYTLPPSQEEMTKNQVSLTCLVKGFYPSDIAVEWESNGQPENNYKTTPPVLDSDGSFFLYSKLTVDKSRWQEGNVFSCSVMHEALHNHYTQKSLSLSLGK
light: QIVLTQSPATLSLSPGERATLSCTASSSVSSSYLHWYQQKPGKAPKLWIYSTSNLASGVPSRFSGSGSGTDYTLTISSLQPEDFATYYCHQYYRLHPITFGQGTKLEIKRTVAAPSVFIFPPSDEQLKSGTASVVCLLNNFYPREAKVQWKVDNALQSGNSQESVTEQDSKDSTYSLSSTLTLSKADYEKHKVYACEVTHQGLSSPVTKSFNRGEC
notes: also called IPN92H0281/IPN93L0024
B26: C1_IPN92H0281-SG4GK/IPN93L0091-SK1 (antibody, human IgG4 S228P, kappa, name in Kabat numbering, V domains shown)
VH: B1 VH with H57K, Y60E, K65D, G66E, G102K
VL: B1 VL with K30S, Y33R
notes: also called IPN92H0281/IPN93L0091
B27: C1_IPN92H0282-SG4GK/IPN93L0024-SK1 (antibody, human IgG4 S228P, kappa, name in Kabat numbering, V domains shown)
VH: B1 VH with Y60E, K65D, G66E, G102K
VL: B1 VL with K30S
notes: also called IPN92H0282/IPN93L0024
B28: C1_IPN92H0282-SG4GK/IPN93L0091-SK1 (antibody, human IgG4 S228P, kappa, name in Kabat numbering, V domains shown)
VH: B1 VH with Y60E, K65D, G66E, G102K
VL: B1 VL with K30S, Y33R
notes: also called IPN92H0282/IPN93L0091

Target: T1, human C1s
Test: SPR, Ab captured; pH 7.4, 1.2 mM Ca
Method: Each antibody was captured onto the sensor surface by protein A/G. Antibody capture levels were aimed at 200 resonance unit (RU). Serum-derived human C1s (CompTech) or recombinant C1s prepared in EXAMPLE 1 was injected at 50 nM, followed by dissociation. The sensor surface was regenerated in each cycle with 10 mM Glycine-HCl, pH 1.5. […] The ratio of KD 5.8+ to KD 7.4+(“KD 5+/7+”) and that of KD 5.8− to KD 7.4+(“KD 5−/7+”) were calculated. When the KD 5+/7+ or KD 5−/7+ of a variant is larger than that of the parent antibody IPN009VH2-SG4GK/IPN009VK3-SK1, that variant is considered to be “pH”- or “pH and Ca”-dependent, respectively. When binding response in 5(+) buffer and/or in 5(−) buffer of a variant is much lower than that of IPN09VH2/IPN009VK3, that variant is also considered as “pH”- and/or “pH and Ca”-dependent. Therefore, such mutations are effective to generate “pH”- and/or “pH and Ca”-dependent antibody. To further enhance “pH” and/or “pH and Ca” dependency, a combination of histidine mutations was conducted. Antibodies with combinations of histidine mutations were evaluated using Biacore by the method described above.
C1_1IPN92H0033 (SEQ ID NO: 17)-SG4GK/IPN93L0024 (SEQ ID NO: 18)-SK1 (IPN92H0033/IPN93L0024) was selected for further optimization. Histidine, Lysine, Arginine, aspartic acid, glutamic acid, and glutamine scanning was conducted for CDRs and certain positions of FRs of IPN92H0033/IPN93L0024. Variants with a mutation were generated and purified, and evaluated using Biacore by the method mentioned above. All variants were evaluated using Biacore as mentioned above. Mutations that improved “pH” and/or “pH and Ca” dependency were selected for the combination.

| Binder | Kd [nM] | koff [s⁻¹] | kon [M⁻¹ s⁻¹] |
| --- | --- | --- | --- |
| B1 | 1.37 | 0.000567 | 413000 |
| B2 | 1.4 | 0.000676 | 482000 |
| B3 | 6.85 | 0.00161 | 236000 |
| B4 | 3.36 | 0.00125 | 373000 |
| B5 | 2.69 | 0.000746 | 277000 |
| B6 | 3.41 | 0.000863 | 253000 |
| B7 | 3.68 | 0.00126 | 343000 |
| B8 | 4.71 | 0.00157 | 333000 |
| B9 | 2.05 | 0.000765 | 374000 |
| B10 | 2.12 | 0.000771 | 364000 |
| B11 | 2.03 | 0.000689 | 340000 |
| B12 | 2.06 | 0.000621 | 302000 |
| B13 | 1.52 | 0.000558 | 368000 |
| B14 | 1.8 | 0.000545 | 303000 |
| B15 | 1.77 | 0.000512 | 289000 |
| B16 | 1.76 | 0.000518 | 294000 |
| B17 | 2.03 | 0.000551 | 271000 |
| B18 | 0.925 | 0.000474 | 513000 |
| B19 | 0.885 | 0.000468 | 529000 |
| B20 | 1.3 | 0.000577 | 444000 |
| B21 | 1.5 | 0.000609 | 406000 |
| B22 | 0.121 | 6.9e-05 | 569000 |
| B23 | 0.985 | 0.000774 | 786000 |
| B24 | 0.686 | 0.000897 | 1.31e+06 |
| B25 | 2.52 | 0.001 | 396000 |
| B26 | 4.72 | 0.00216 | 457000 |
| B27 | 1.65 | 0.000632 | 383000 |
| B28 | 1.96 | 0.000924 | 471000 |
